In patent publication US20160250307A1:

How the values were obtained:
HLA-A*24 (human) [1] = assay: UV-ligand exchange, anti-b2m ELISA; grade: exchange yield >=50%
HLA-A*24 (human) [2] = assay: UV-ligand exchange, anti-b2m ELISA; grade: exchange yield >=75%
HLA-A*02 (human) = assay: UV-ligand exchange, anti-b2m ELISA; grade: exchange yield >=50%

| Binder | peptide exchange yield (HLA-A*24 (human) [2]) [%] | other results |
| --- | --- | --- |
| VFHPRQELI |  | peptide exchange yield (HLA-A*24 (human) [1]): 50 to 75% |
| VYGDVISNI | > 75 |  |
| KYPDIISRI | > 75 |  |
| IYIPSYFDF | > 75 |  |
| IYLERFPIF | > 75 |  |
| RYAPPPSFSEF | > 75 |  |
| RYSAGWDAKF | > 75 |  |
| AYVNTFHNI | > 75 |  |
| LYWSHPRKF | > 75 |  |
| AYLKWISQI | > 75 |  |
| RYNEKCFKL | > 75 |  |
| DYIPYVFKL | > 75 |  |
| SYITKPEKW | > 75 |  |
| VYGLQRNLL | > 75 |  |
| IYPGAFVDL | > 75 |  |
| AFSPDSHYLLF |  | peptide exchange yield (HLA-A*24 (human) [1]): 50 to 75% |
| ALDSGAFQSV (modifications not checked) |  | peptide exchange yield (HLA-A*02 (human)): 50 to 75% |

Now from value to binder, other results behind:

| peptide exchange yield (HLA-A*24 (human) [2]) [%] | Binder | other results |
| --- | --- | --- |
| > 75 | AYPAIRYLL |  |
| > 75 | KFVTVQATF |  |
| > 75 | AYGTYRSNF |  |
| > 75 | IYTGNISSF |  |
| > 75 | KWPETPLLL |  |
| > 75 | AYLLQPSQF |  |
| > 75 | IYADVGEEF |  |
| > 75 | YYGILQEKI |  |
| > 75 | SYNPAENAVLL |  |
| > 75 | SYPTFFPRF |  |
| > 75 | YYNKVSTVF |  |
| > 75 | VYQGAIRQI |  |
| > 75 | RWPKKSAEF |  |
| > 75 | IYVTSIEQI |  |
